T1: human FcγRIIB α subunit extracellular domain-6His-GST fusion (human, UniProt P31994 43-217)
T1 construct: not shown: glutathione S-transferase (GST)
T1 sequence: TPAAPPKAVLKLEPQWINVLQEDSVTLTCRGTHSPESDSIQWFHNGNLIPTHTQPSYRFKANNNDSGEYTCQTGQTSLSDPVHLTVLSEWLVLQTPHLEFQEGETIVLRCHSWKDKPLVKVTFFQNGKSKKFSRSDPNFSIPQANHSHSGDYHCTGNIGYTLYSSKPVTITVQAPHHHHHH

T2: human FcγRIIA-R131 α subunit extracellular domain-6His-GST fusion (human, UniProt P12318 34-217)
T2 construct: also called FcγRIIA-Arg131; not shown: glutathione S-transferase (GST)
T2 sequence: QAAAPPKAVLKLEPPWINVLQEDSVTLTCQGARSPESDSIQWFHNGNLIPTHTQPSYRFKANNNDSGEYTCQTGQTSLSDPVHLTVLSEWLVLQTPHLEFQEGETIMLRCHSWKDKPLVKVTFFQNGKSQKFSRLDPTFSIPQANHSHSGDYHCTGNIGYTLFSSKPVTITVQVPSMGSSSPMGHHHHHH

B1: E27 IgG1 variant K290(307)S (antibody)
heavy: not shown
light: DIQLTQSPSSLSASVGDRVTITCRASKPVDGEGDSYLNWYQQKPGKAPKLLIYAASYLESGVPSRFSGSGSGTDFTLTISSLQPEDFATYYCQQSHEDPYTFGQGTKVEIKRTVAAPSVFIFPPSDEQLKSGTASVVCLLNNFYPREAKVQWKVDNALQSGNSQESVTEQDSKDSTYSLSSTLTLSKADYEKHKVYACEVTHQGLSSPVTKSFNRGEC
notes: also called IG2 75
B2: E27 IgG1 variant N276(289)K (antibody)
heavy: not shown
light: B1 light
B3: E27 IgG1 variant P331(350)S (antibody)
heavy: not shown
light: B1 light
notes: also called IG2 198
B4: E27 IgG1 variant K338(358)M (antibody)
heavy: not shown
light: B1 light
B5: E27 IgG1 variant K322(341)R (antibody)
heavy: not shown
light: B1 light
notes: also called IG2 155
B6: E27 IgG1 variant K326(345)E (antibody)
heavy: not shown
light: B1 light
notes: also called IG2 212
B7: E27 IgG1 variant R292(309)H (antibody)
heavy: not shown
light: B1 light
notes: also called IG2 81
B8: E27 IgG1 variant K326(345)Q (antibody)
heavy: not shown
light: B1 light
notes: also called IG2 210
B9: E27 IgG1 variant K320(339)M (antibody)
heavy: not shown
light: B1 light
notes: also called IG2 202
B10: E27 IgG1 variant K334(353)D (antibody)
heavy: not shown
light: B1 light
notes: also called IG2 140
B11: E27 IgG1 variant P331(350)N (antibody)
heavy: not shown
light: B1 light
notes: also called IG2 199
B12: E27 IgG1 variant N286(303)D (antibody)
heavy: not shown
light: B1 light
notes: also called IG2 238
B13: E27 IgG1 variant K322(341)N (antibody)
heavy: not shown
light: B1 light
notes: also called IG2 207
B14: E27 IgG1 variant S298(317)L (antibody)
heavy: not shown
light: B1 light
B15: E27 IgG1 variant K334(353)N (antibody)
heavy: not shown
light: B1 light
B16: E27 IgG1 variant K334(353)L (antibody)
heavy: not shown
light: B1 light
notes: also called IG2 221
B17: E27 IgG1 variant K320(339)Q (antibody)
heavy: not shown
light: B1 light
notes: also called IG2 204
B18: E27 IgG1 variant N276(289)Q (antibody)
heavy: not shown
light: B1 light
notes: also called IG2 233
B19: E27 IgG1 variant K322(341)Q (antibody)
heavy: not shown
light: B1 light
B20: E27 IgG1 variant K334(353)Q (antibody)
heavy: not shown
light: B1 light
B21: E27 IgG1 variant K326(345)N (antibody)
heavy: not shown
light: B1 light
notes: also called IG2 209
B22: E27 IgG1 variant N286(303)S (antibody)
heavy: not shown
light: B1 light
notes: also called IG2 237
B23: E27 IgG1 variant R292(309)K (antibody)
heavy: not shown
light: B1 light
notes: also called IG2 80
B24: E27 IgG1 variant K326(345)S (antibody)
heavy: not shown
light: B1 light
B25: E27 IgG1 variant P331(350)K (antibody)
heavy: not shown
light: B1 light
B26: E27 IgG1 variant K334(353)R (antibody)
heavy: not shown
light: B1 light
B27: E27 IgG1 variant K320(339)E (antibody)
heavy: not shown
light: B1 light
notes: also called IG2 205
B28: E27 IgG1 variant K334(353)E (antibody)
heavy: not shown
light: B1 light
B29: E27 IgG1 variant N286(303)Q (antibody)
heavy: not shown
light: B1 light
notes: also called IG2 23
B30: E27 IgG1 variant R292(309)N (antibody)
heavy: not shown
light: B1 light
notes: also called IG2 83
B31: E27 IgG1 variant K334(353)S (antibody)
heavy: not shown
light: B1 light
B32: E27 IgG1 variant K326(345)D (antibody)
heavy: not shown
light: B1 light
notes: also called IG2 211
B33: E27 IgG1 variant S298(317)N (antibody)
heavy: not shown
light: B1 light
notes: also called IG2 72
B34: E27 IgG1 variant K322(341)E (antibody)
heavy: not shown
light: B1 light
B35: E27 IgG1 variant S298(317)G (antibody)
heavy: not shown
light: B1 light
notes: also called IG2 70
B36: E27 IgG1 variant P331(350)E (antibody)
heavy: not shown
light: B1 light
notes: also called IG2 200
B37: E27 IgG1 variant K334(353)V (antibody)
heavy: not shown
light: B1 light
notes: also called IG2 220
B38: E27 IgG1 variant R292(309)Q (antibody)
heavy: not shown
light: B1 light
notes: also called IG2 82
B39: E27 IgG1 variant R301(320)M (antibody)
heavy: not shown
light: B1 light

Molecular target: T1, human FcγRIIB α subunit extracellular …
Experiment: ELISA, IgG:IgE hexamers on receptor-GST

Row | ratio to native IgG1 | Binder
1 | 1.34 | B1
2 | 0.77 | B2
3 | 0.78 | B3
4 | 0.93 | B4
5 | 0.87 | B5
6 | 1.47 | B6
7 | 0.12 | B7
8 | 1.41 | B8
9 | 1.4 | B9
10 | 0.4 | B10
11 | 0.65 | B11
12 | 1.23 | B12
13 | 0.36 | B13
14 | 1.42 | B14
15 | 1.29 | B15
16 | 1.09 | B16
17 | 1.12 | B17
18 | 0.79 | B18
19 | 0.92 | B19
20 | 1.1 | B20

Row | ratio to native IgG1 | Binder
21 | 1 | B21
22 | 1.38 | B22
23 | 0.75 | B23
24 | 1.62 | B24
25 | 0.71 | B25
26 | 1.33 | B26
27 | 1.34 | B27
28 | 0.72 | B28
29 | 1.13 | B29
30 | 0.29 | B30
31 | 1.03 | B31
32 | 2.01 | B32
33 | 0.08 | B33
34 | 1.34 | B34
35 | 0.63 | B35
36 | 0.91 | B36
37 | 1.09 | B37
38 | 0.25 | B38
39 | 1.56 | B39

Molecular target: T3, human FcγRIIIA-F158 α subunit extracellular domain-6His-GST fusion (human, UniProt P08637 17-208)
T3 construct: also called FcγRIIIA-Phe158; not shown: glutathione S-transferase (GST)
T3 sequence (P08637 other isoform, or with tags, fused parts or gaps, form in doubt): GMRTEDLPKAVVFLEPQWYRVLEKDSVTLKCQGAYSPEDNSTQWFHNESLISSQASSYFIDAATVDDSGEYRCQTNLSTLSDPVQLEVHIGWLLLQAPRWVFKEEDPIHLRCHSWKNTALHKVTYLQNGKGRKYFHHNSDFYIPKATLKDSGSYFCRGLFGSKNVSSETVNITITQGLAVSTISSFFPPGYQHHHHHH
Experiment: ELISA, IgG:IgE hexamers on receptor-GST

Row | ratio to native IgG1 | Binder
40 | 1.26 | B1
41 | 0.61 | B2
42 | 0.58 | B3
43 | 0.49 | B4
44 | 0.92 | B5
45 | 1.26 | B6
46 | 0.92 | B7
47 | 1.15 | B8
48 | 1.27 | B9
49 | 1.13 | B10
50 | 0.23 | B11
51 | 0.98 | B12
52 | 0.04 | B13
53 | 0.34 | B14
54 | 1.11 | B15
55 | 1.38 | B16
56 | 1.17 | B17
57 | 0.91 | B18
58 | 0.78 | B19
59 | 1.23 | B20

Row | ratio to native IgG1 | Binder
60 | 1.27 | B21
61 | 1.32 | B22
62 | 1.15 | B23
63 | 1.37 | B24
64 | 0.33 | B25
65 | 0.68 | B26
66 | 1.12 | B27
67 | 1.3 | B28
68 | 0.96 | B29
69 | 0.88 | B30
70 | 1.19 | B31
71 | 1.36 | B32
72 | 0.06 | B33
73 | 0.81 | B34
74 | 0.46 | B35
75 | 0.42 | B36
76 | 1.34 | B37
77 | 0.45 | B38
78 | 0.48 | B39

Molecular target: T2, human FcγRIIA-R131 α subunit …
Experiment: ELISA, IgG:IgE hexamers on receptor-GST

Row | ratio to native IgG1 | Binder
79 | 1.27 | B1
80 | 0.81 | B2
81 | 0.91 | B3
82 | 0.99 | B4
83 | 0.87 | B5
84 | 1.34 | B6
85 | 0.21 | B7
86 | 1.36 | B8
87 | 1.34 | B9
88 | 0.51 | B10
89 | 0.86 | B11
90 | 1.41 | B12
91 | 0.57 | B13
92 | 1.14 | B14
93 | 1.16 | B15
94 | 1.05 | B16
95 | 1.23 | B17
96 | 1.09 | B18
97 | 0.87 | B19
98 | 1.08 | B20

Row | ratio to native IgG1 | Binder
99 | 1.04 | B21
100 | 1.72 | B22
101 | 0.71 | B23
102 | 1.44 | B24
103 | 0.94 | B25
104 | 1.15 | B26
105 | 1.29 | B27
106 | 0.74 | B28
107 | 1.52 | B29
108 | 0.54 | B30
109 | 1.01 | B31
110 | 1.68 | B32
111 | 0.05 | B33
112 | 1.38 | B34
113 | 0.87 | B35
114 | 1.06 | B36
115 | 1.13 | B37
116 | 0.47 | B38
117 | 1.29 | B39

Source: patent US7183387 (Genentech, dated 2007)
